Test results published in US8450280B2, “Activation of peptide prodrugs by hK2” (GenbSpera, Inc., priority 1999, dated 2013).

Key:
hK2 = target: T1, hK2 (Homo sapiens, UniProt P20151); test: Hydrolysis of hK2 substrates by hK2; format: biochemical; conditions: hK2 1 μg/ml, 50 mM Tris, 0.1 M NaCl, pH 7.8
T1 construct: made in house
Experimental: (§1) Hydrolyses of particular hK2 substrates were carried out at a hK2 concentrations of 1 μg/ml in 50 mM Tris buffer, with 0.1 M NaCl, at pH 7.8. Serum hydrolysis measurements were carried out in 50% fresh human serum in 50 mM Tris buffer, with 0.1 M NaCl, at pH 7.8. The single letter amino acid code was used to designate the peptide sequences used for Table 4. The units FU are arbitrary fluorescence units. The entries “U.D.” were for measurements of less than 0.01 FU/hour.

[1] = Serum hydrolysis of hK2 substrates; format: in vitro ADME; conditions: 50% fresh human serum in 50 mM Tris, 0.1 M NaCl, pH 7.8
Experimental: as §1

T1 sequence (P20151 25-261): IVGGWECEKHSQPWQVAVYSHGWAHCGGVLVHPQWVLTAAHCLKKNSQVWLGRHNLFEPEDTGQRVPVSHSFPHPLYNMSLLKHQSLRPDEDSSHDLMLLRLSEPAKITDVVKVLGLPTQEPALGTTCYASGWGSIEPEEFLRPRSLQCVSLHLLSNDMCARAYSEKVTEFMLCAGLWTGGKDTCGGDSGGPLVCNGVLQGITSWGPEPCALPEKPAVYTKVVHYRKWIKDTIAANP

Substance | hK2 Hydrolysis Rate (hK2; Table 4) [FU/hr/m] | hK2 Hydrolysis Rate (hK2; Table 5) [FU/hr/m] | Serum Hydrolysis Rate ([1]; Table 4) | Serum Hydrolysis Rate ([1]; Table 5)
SEQ ID NO: 66: hK2 substrate peptide, single letter sequence P7-P′1 (GHEQKRRL; listed as Homo sapiens) | 5966.31 | 3366.5 | 0.17 FU/hr | UD (The entries “U.D.” were for measurements of less than 0.01 FU/hour)
SEQ ID NO: 67: hK2 substrate peptide, single letter sequence P7-P′1 (GGGKARRL; listed as Homo sapiens) | 4784.22 | – | 0.03 FU/hr | –
SEQ ID NO: 68: hK2 substrate peptide, single letter sequence P7-P′1 (GGGKAHRL; listed as Homo sapiens) | 4100.94 | – | 0.09 FU/hr | –
SEQ ID NO: 69: hK2 substrate peptide, single letter sequence P7-P′1 (GPAHQRRL; listed as Homo sapiens) | 4017.81 | – | 0.10 FU/hr | –
SEQ ID NO: 70: hK2 substrate peptide, single letter sequence P7-P′1 (GSKGHFRL; listed as Homo sapiens) | 3029.27 | – | 0.04 FU/hr | –
SEQ ID NO: 71: hK2 substrate peptide, single letter sequence P7-P′1 (GSKGHRRL; listed as Homo sapiens) | 2649.96 | – | UD (The entries “U.D.” were for measurements of less than 0.01 FU/hour) | –
SEQ ID NO: 72: hK2 substrate peptide, single letter sequence P7-P′1 (GKDVSRRL; listed as Homo sapiens) | 2316.12 | – | 0.08 FU/hr | –
SEQ ID NO: 73: hK2 substrate peptide, single letter sequence P7-P′1 (GSQNQRRL; listed as Homo sapiens) | 2100.48 | – | 0.05 FU/hr | –
SEQ ID NO: 74: hK2 substrate peptide, single letter sequence P7-P′1 (GSYPSRRL; listed as Homo sapiens) | 2060.21 | – | 0.09 FU/hr | –
SEQ ID NO: 75: hK2 substrate peptide, single letter sequence P7-P′1 (GSYPSSRL; listed as Homo sapiens) | 1456.18 | – | 0.06 FU/hr | –
SEQ ID NO: 76: hK2 substrate peptide, single letter sequence P7-P′1 (GHEQKGRL; listed as Homo sapiens) | 650.80 | – | 0.04 FU/hr | –
SEQ ID NO: 77: hK2 substrate peptide, single letter sequence P7-P′1 (GSNTERRL; listed as Homo sapiens) | 592.34 | – | UD (The entries “U.D.” were for measurements of less than 0.01 FU/hour) | –
SEQ ID NO: 78: hK2 substrate peptide, single letter sequence P7-P′1 (GSYEERRL; listed as Homo sapiens) | 324.75 | – | 0.04 FU/hr | –
SEQ ID NO: 79: hK2 substrate peptide, single letter sequence P7-P′1 (GKDVSGRL; listed as Homo sapiens) | 242.91 | – | 0.05 FU/hr | –
SEQ ID NO: 80: hK2 substrate peptide, single letter sequence P7-P′1 (GSNTEKRL; listed as Homo sapiens) | 255.90 | – | 0.13 FU/hr | –
SEQ ID NO: 81: hK2 substrate peptide, single letter sequence P7-P′1 (GSKGHFHL; listed as Homo sapiens) | 171.47 | – | 0.10 FU/hr | –
SEQ ID NO: 82: hK2 substrate peptide, single letter sequence P7-P′1 (GSQNQVRL; listed as Homo sapiens) | 193.55 | – | 0.03 FU/hr | –
SEQ ID NO: 83: hK2 substrate peptide, single letter sequence P7-P′1 (GPLILSRL; listed as Homo sapiens) | 118.21 | – | 0.07 FU/hr | –
SEQ ID NO: 84: hK2 substrate peptide, single letter sequence P7-P′1 (GSYEERHL; listed as Homo sapiens) | 42.87 | – | 0.09 FU/hr | –

Substance | hK2 Hydrolysis Rate (hK2; Table 4) [FU/hr/m] | hK2 Hydrolysis Rate (hK2; Table 5) [FU/hr/m] | Serum Hydrolysis Rate ([1]; Table 4) | Serum Hydrolysis Rate ([1]; Table 5)
SEQ ID NO: 85: hK2 substrate peptide, single letter sequence P7-P′1 (GKDVSGHL; listed as Homo sapiens) | 67.55 | – | 0.05 FU/hr | –
SEQ ID NO: 86: hK2 substrate peptide, single letter sequence P7-P′1 (GGGKAHHL; listed as Homo sapiens) | 70.15 | – | 0.05 FU/hr | –
SEQ ID NO: 87: hK2 substrate peptide, single letter sequence P7-P′1 (GSNTEKHL; listed as Homo sapiens) | 80.54 | – | 0.03 FU/hr | –
SEQ ID NO: 88: hK2 substrate peptide, single letter sequence P7-P′1 (GPAHQDRL; listed as Homo sapiens) | 75.34 | – | 0.06 FU/hr | –
SEQ ID NO: 89: hK2 substrate peptide, single letter sequence P7-P′1 (GHEQKGHL; listed as Homo sapiens) | 1.30 | – | UD (The entries “U.D.” were for measurements of less than 0.01 FU/hour) | –
SEQ ID NO: 90: hK2 substrate peptide, single letter sequence P7-P′1 (GPAHQDHL; listed as Homo sapiens) | 48.06 | – | 0.00 FU/hr | –
SEQ ID NO: 91: hK2 substrate peptide, single letter sequence P7-P′1 (GSYPSSHL; listed as Homo sapiens) | 24.68 | – | UD (The entries “U.D.” were for measurements of less than 0.01 FU/hour) | –
SEQ ID NO: 92: hK2 substrate peptide, single letter sequence P7-P′1 (GSQNQVHL; listed as Homo sapiens) | 32.48 | – | 0.03 FU/hr | –
SEQ ID NO: 93: hK2 substrate peptide, single letter sequence P7-P′1 (GHAQKRRL; listed as Homo sapiens) | – | 3665.1 | – | 0.08 FU/hr
SEQ ID NO: 94: hK2 substrate peptide, single letter sequence P6-P′1 (GGKSRRL; listed as Homo sapiens) | – | 3439.7 | – | 0.03 FU/hr
SEQ ID NO: 95: hK2 substrate peptide, single letter sequence P7-P′1 (GHEAKRRL; listed as Homo sapiens) | – | 3324.1 | – | UD (The entries “U.D.” were for measurements of less than 0.01 FU/hour)
SEQ ID NO: 96: hK2 substrate peptide, single letter sequence P6-P′1 (GGQKRRL; listed as Homo sapiens) | – | 3267.4 | – | 0.02 FU/hr
SEQ ID NO: 97: hK2 substrate peptide, single letter sequence P7-P′1 (GHEQKRRA; listed as Homo sapiens) | – | 3051.5 | – | 0.06 FU/hr
SEQ ID NO: 98: hK2 substrate peptide, single letter sequence P6-P′1 (GGAKRRL; listed as Homo sapiens) | – | 2773.0 | – | 0.02 FU/hr
SEQ ID NO: 99: hK2 substrate peptide, single letter sequence P7-P′1 (GHEQKRRS; listed as Homo sapiens) | – | 2638.5 | – | UD (The entries “U.D.” were for measurements of less than 0.01 FU/hour)
SEQ ID NO: 100: hK2 substrate peptide, single letter sequence P6-P′1 (GGKKRRL; listed as Homo sapiens) | – | 2583.0 | – | UD (The entries “U.D.” were for measurements of less than 0.01 FU/hour)
SEQ ID NO: 101: hK2 substrate peptide, single letter sequence P6-P′1 (GGHKRRL; listed as Homo sapiens) | – | 2428.4 | – | UD (The entries “U.D.” were for measurements of less than 0.01 FU/hour)
SEQ ID NO: 102: hK2 substrate peptide, single letter sequence P6-P′1 (GGKAFRL; listed as Homo sapiens) | – | 2374.2 | – | 0.07 FU/hr
SEQ ID NO: 103: hK2 substrate peptide, single letter sequence P7-P′1 (GAEQKRRL; listed as Homo sapiens) | – | 2325.8 | – | 0.10 FU/hr
